Test results taken from patent US20170313764A1 (ACADEMISCH MEDISCH CENTRUM, published 2017).

Legend:
Test in all cases: ELISA, GNA-captured E1E2 lysate; EC50 wild type / EC50 mutant
[1] = target: E1E2 of HCV isolate H77 with single mutation N423A (Hepatitis C virus genotype 1a, strain …, UniProt P27958 192-383; P27958 384-746)
[2] = target: E1E2 of HCV isolate H77 with single mutation W420A (Hepatitis C virus genotype 1a, strain …, UniProt P27958 192-383; P27958 384-746)
[3] = target: E1E2 of HCV isolate H77 with single mutation P676A (Hepatitis C virus genotype 1a, strain …, UniProt P27958 192-383; P27958 384-746)
[4] = target: E1E2 of HCV isolate H77 with single mutation T435A (Hepatitis C virus genotype 1a, strain …, UniProt P27958 192-383; P27958 384-746)
[5] = target: E1E2 of HCV isolate H77 with single mutation N448A (Hepatitis C virus genotype 1a, strain …, UniProt P27958 192-383; P27958 384-746)
[6] = target: E1E2 of HCV isolate H77 with single mutation V538A (Hepatitis C virus genotype 1a, strain …, UniProt P27958 192-383; P27958 384-746)
[7] = target: E1E2 of HCV isolate H77 with single mutation G530A (Hepatitis C virus genotype 1a, strain …, UniProt P27958 192-383; P27958 384-746)
[8] = target: E1E2 of HCV isolate H77 with single mutation A439G (Hepatitis C virus genotype 1a, strain …, UniProt P27958 192-383; P27958 384-746)
[9] = target: E1E2 of HCV isolate H77 with single mutation R657A (Hepatitis C virus genotype 1a, strain …, UniProt P27958 192-383; P27958 384-746)
[10] = target: E1E2 of HCV isolate H77 with single mutation N532A (Hepatitis C virus genotype 1a, strain …, UniProt P27958 192-383; P27958 384-746)
[11] = target: E1E2 of HCV isolate H77 with single mutation Y527A (Hepatitis C virus genotype 1a, strain …, UniProt P27958 192-383; P27958 384-746)
[12] = target: E1E2 of HCV isolate H77 with single mutation N415A (Hepatitis C virus genotype 1a, strain …, UniProt P27958 192-383; P27958 384-746)
[13] = target: E1E2 of HCV isolate H77 with single mutation Y443A (Hepatitis C virus genotype 1a, strain …, UniProt P27958 192-383; P27958 384-746)
[14] = target: E1E2 of HCV isolate H77 with single mutation T526A (Hepatitis C virus genotype 1a, strain …, UniProt P27958 192-383; P27958 384-746)
[15] = target: E1E2 of HCV isolate H77 with single mutation P664A (Hepatitis C virus genotype 1a, strain …, UniProt P27958 192-383; P27958 384-746)
[16] = target: E1E2 of HCV isolate H77 with single mutation N325A (in E1) (Hepatitis C virus genotype 1a, strain …, UniProt P27958 192-383; P27958 384-746)
[17] = target: E1E2 of HCV isolate H77 with single mutation W529A (Hepatitis C virus genotype 1a, strain …, UniProt P27958 192-383; P27958 384-746)
[18] = target: E1E2 of HCV isolate H77 with single mutation W616A (Hepatitis C virus genotype 1a, strain …, UniProt P27958 192-383; P27958 384-746)
[19] = target: E1E2 of HCV isolate H77 with single mutation N209A (in E1) (Hepatitis C virus genotype 1a, strain …, UniProt P27958 192-383; P27958 384-746)
[20] = target: E1E2 of HCV isolate H77 with single mutation F442A (Hepatitis C virus genotype 1a, strain …, UniProt P27958 192-383; P27958 384-746)

Row | Binder | relative binding, mutant vs wild type [1] | relative binding, mutant vs wild type [2] | relative binding, mutant vs wild type [3] | relative binding, mutant vs wild type [4] | relative binding, mutant vs wild type [5] | relative binding, mutant vs wild type [6] | relative binding, mutant vs wild type [7] | relative binding, mutant vs wild type [8] | relative binding, mutant vs wild type [9] | relative binding, mutant vs wild type [10] | relative binding, mutant vs wild type [11] | relative binding, mutant vs wild type [12] | relative binding, mutant vs wild type [13] | relative binding, mutant vs wild type [14] | relative binding, mutant vs wild type [15] | relative binding, mutant vs wild type [16] | relative binding, mutant vs wild type [17] | relative binding, mutant vs wild type [18] | relative binding, mutant vs wild type [19] | relative binding, mutant vs wild type [20]
1 | AT15-009 (antibody, V domains shown) VH: QVLLVQSGAEVKKPGSSVKVSCKASGGTFSTYAISWLRQAPGQGPEWMGGIVPMFGITNYAQHFQGRITITADKSTSTAYMELSSLGSEDTAVYFCARDLRSGGTFFSRGFDLWGPGTKVTVSS VL: EIVLTQSPGTLSLSPGERATLSCRASQSVSSSFLTWYQQKPGQAPRLLIFDASTRATGVPDRFSGSGSGTDFTLTISRLEPEDFGVYYCQQFDSSPTFGGGTKVEIK | 111% | 102% | 102% | 101% | 113% | 126% | 52% | 97% | 123% | 118% | 84% | 116% | 64% | 87% | 101% | 103% | 82% | 29% | 105% | 27%
2 | AT15-012 (antibody, V domains shown, also called AT15-12) VH: QVQLVQSGAEVKKPGSSVKVSCKASGGNFNIFPITWVRQAPGQGLEWMGEIIPMLGTPEYAQKFQGRVTITADKSTGTAFMELSSLRSEDTAVYYCARTETTLPGTLFFVYYFHFWGQGTPVTVSS VL: EIVMTQSPVTLSVSPGERAILSCRASQSVSSSLAWYQQKPGQAPRLLIYGASTRATGVPARFSGSGSGTEFTLTISSVQSEDYAIYFCQQYNDRPPWTFGQGTKVEIK | 132% | 111% | 92% | 99% | 129% | 103% | 48% | 94% | 138% | 125% | 76% | 101% | 103% | 82% | 83% | 94% | 77% | 71% | 99% | 60%
